Data set [1] has as its system CCCCCCCCCCCCCCCC(=O)Oc1ccc([N+](=O)[O-])cc1. Kind of data set: purified protein. The settings on record: pH 8.0, 40°C, emulsified substrate, Triton X-100 and gum arabic in the standard assay. Format: biochemical, Rhizopus microsporus.
Data set [2] has the same test system. Kind of data set: purified protein. The settings on record: pH 8.0, 40°C, emulsified substrate, Triton X-100 and gum arabic in the standard assay.

Like-named read-outs stand apart in the source and are kept apart here.

As usually defined, the Km is the concentration of substrate that gives half-maximal velocity. A word on the kcat: it is the number of substrate molecules converted per active site and unit of time at saturation. A word on the kcat/Km: it is the second-order rate constant that governs catalysis at low substrate concentration.

On to “Rhizopus chinensis lipase (RCL; proRCLCNQ): N14Q (proRCLCN14Q)”, for which, where the note is “N-glycosylation at N14”, the enzymatic_activity result is reported as “decreases, kcat 60.70 to 24.82 s-1; Km 0.20 to 2.01 mM; kcat/Km 2.92*10^5 to 1.22*10^5 M-1 s-1”; the expression_or_secretion entry is “no change”; the stability_or_folding entry was “decreases”; the structure_or_conformation entry is listed as “no change”.
With “Rhizopus chinensis lipase (RCL; proRCLCNQ): N14Q (proRCLCN14Q), 90% (v/v) organic solvents, 24 h”, the stability_or_folding entry (N-glycosylation at N14) is “decreases, relative activity e.g. isooctane 78 ± 3.5% to 70 ± 3.0%; DMSO 58 ± 4.0% to 51 ± 4.2%”.
For “Rhizopus chinensis lipase (RCL; proRCLCNQ): N48Q (proRCLCN48Q)”, for the setting “N-glycosylation at N48”, the enzymatic_activity result is given as “no change, kcat 60.70 vs 61.33 s-1; Km 0.20 vs 0.19 mM; kcat/Km 2.92*10^5 vs 3.11*10^5 M-1 s-1”; the expression_or_secretion result is listed as “no change”; the stability_or_folding result was “no change, about 70% residual activity after 1 h at 50 °C for both”.
As for “Rhizopus chinensis lipase (RCL; proRCLCNQ): N60Q (proRCLCN60Q)”, where the note is “N-glycosylation at N60”, the expression_or_secretion result is given as “abolishes”.
As for “Rhizopus chinensis lipase (RCL; proRCLCNQ): N60Q (proRCLCN60Q), mRNA level by RT-PCR”, under “N-glycosylation at N60”, the other entry is reported as “no change”.
Consider “proRCLCNQ (Rhizopus microsporus var. chinensis; K92N/N40Q/R93Q)”, for which, in data set [1] (printed Km inconsistent with printed kcat/Km (tenfold), possible misprint), the Michaelis constant (Km) came to 2010 ± 120 µM.
Turning to “proRCLCNQ (Rhizopus microsporus var. chinensis; K92N/N74Q/R93Q)”, in data set [1], the Km came to 190 ± 20 µM, the kcat came out at 61.3 ± 2.5 s⁻¹ and the kcat/Km turned out to be 311000 ± 61000 M⁻¹ s⁻¹.
Consider “proRCLCNQ (Rhizopus microsporus var. chinensis; K92N/R93Q)”, for which, in data set [1], the Km worked out at 200 ± 40 µM, the kcat was 60.7 ± 2.2 s⁻¹ and the catalytic efficiency (kcat/Km) turned out to be 292000 ± 55000 M⁻¹ s⁻¹.
Regarding “r27RCLC (Rhizopus microsporus var. chinensis)”, in data set [2], the Km is 340 ± 100 µM, the kcat was 122 ± 3.1 s⁻¹ and the kcat/Km was 356000 ± 81000 M⁻¹ s⁻¹.

These data come from publication PMC4417512, “Role of N-linked glycosylation in the secretion and enzymatic properties of Rhizopus chinensis lipase expressed in Pichia pastoris” (Microbial Cell Factories, 2015).
